According to patent US20130136736A1 (Ablynx, published 2013):
Where a chain is given by its changes, count along the chain named. One block for each molecule: values may come before it.

Key:
[1] = biological target: ultra-large von Willebrand factor (ULvWF) (human) (UniProt P04275); assay: cell-based or functional assay
[2] = biological target: T1, human von Willebrand Factor (vWF) (human, UniProt P04275 764-2813); assay: BIACORE (SPR): vWF amine-coupled to a CM5 chip, nanobody injected at 1.3 nM
T1 construct: Multimeric plasma protein; The species of the vWF on the BIACORE chip and ELISA plates is not restated there; also called vWF (Red Cross); human vWF
Method: (§1) The CM5 surface of the chip was activated by the injection of EDC/NHS (1:1 mix of 0.4 M 1-ethyl-3-(3-dimethylaminopropyl)-carbodiimide and 0.1 M N-hydroxysuccinimide in water) for 7 minutes. […] The excess of reactive groups was deactivated with 1 M Ethanolamine-HCl (pH 8.5) for 7 minutes. The flowrate was kept constant during the immobilization procedure at 5 ul/min The eluent buffer was 0.01 M HEPES (pH 7.4) with 0.15 M NaCl, 3 mM EDTA and 0.005% Surfactant P20.

[3] = biological target: T1, human von Willebrand Factor (vWF); assay: as above; remark: listed apart in the source
Method: as §1

[4] = biological target: T1, human von Willebrand Factor (vWF); assay: ELISA: vWF coated on the plate, nanobody titrated in 3-fold steps, detection with mouse anti-myc and anti-mouse-HRP, OD 405 nm
[5] = biological target: T1, human von Willebrand Factor (vWF); assay: ELISA: vWF coated on the plate, nanobody titrated from 10 µg/ml in 3-fold steps, detection with mouse anti-myc and anti-mouse-HRP, OD 405 nm
Method: The plate was coated overnight at 4° C. The plate was then washed with PBS-Tween and blocked for two hours at room temperature with PBS-1% casein. After washing, the samples were applied starting at a concentration of 10 μg/ml and 3-fold dilutions were made in PBS. After a two hours incubation period, the plates were washed and mouse monoclonal anti-myc antibody at a 1000-fold dilution was applied for 1 hour at room temperature. The plates were washed and polyclonal anti-mouse-HRP (DAKO) was applied at a 1000-fold dilution for one hour at room temperature. The plates were washed and ABTS/H₂O₂ substrate was applied. The OD 405 nm was measured.

[6] = biological target: T1, human von Willebrand Factor (vWF); assay: ELISA on coated vWF: supernatant of a 200 µg/ml nanobody solution heated for 1 h at RT to 90 °C, dilution series, OD 405 nm
[7] = biological target: T1, human von Willebrand Factor (vWF); assay: ELISA: vWF coated on the plate, nanobody titrated in 3-fold steps, detection with mouse anti-myc and anti-mouse-HRP, OD 405 nm; remark: listed apart in the source
pig vWF = biological target: T2, pig vWF (pig, UniProt Q28833 438-2482); assay: sandwich ELISA: nanobody (10 µg/ml) captured on coated anti-myc, plasma from a 5-fold dilution in 2-fold steps, detection with polyclonal anti-vWF-HRP, OD 405 nm
T2 construct: Native vWF in plasma
Method: A microtiterplate was coated with mouse anti-myc at 1/1000 overnight at 4° C. The plate was washed with PBS-Tween and blocked for two hours at room temperature with PBS-1% casein. After washing, the nanobodies were applied at a concentration of 10 μg/ml in PBS. After a one hour incubation period, the plates were washed and plasma (dog, pig, human, baboon and cynomologues monkey) was applied starting at a five-fold dilution and making further two-fold dilutions in PBS. The plates were incubated for 1 hour at room temperature. […] The plates were washed and ABTS/H₂O₂ substrate was applied. The OD 405 nm was measured.

[8] = biological target: T1, human von Willebrand Factor (vWF); assay: ELISA on coated vWF: supernatant of a 200 µg/ml nanobody solution heated for 1 h at RT to 90 °C, dilution series, OD 405 nm; remark: listed apart in the source

Molecule: ADAMTS-13 (from UniProt Q76LX8 75-1427) (enzyme)
- cleavage of ULvWF platelet strings on perfusion of pooled normal plasma containing ADAMTS-13 [1]: > 95%
- cleavage of ULvWF platelet strings on perfusion of pooled normal plasma containing ADAMTS-13 and ALX-0081 (10 µg/ml) [1]: 95%

B1: 12B6-GS9-12B6 (VHH)
chain: QVQLVESGGGLVQAGGALRLSCAASGRTFSYNPMGWFRQAPGKERDVVAAISRTGGSTYYARSVEGRFTISRDNAKRMVYLQMNALKPEDTAVYYCAAAGVRAEDGRVRTLPSEYNFWGQGTQVTVSSGGGGSGGGSEVQLVESGGGLVQAGGALRLSCAASGRTFSYNPMGWFRQAPGKERDVVAAISRTGGSTYYARSVEGRFTISRDNAKRMVYLQMNALKPEDTAVYYCAAAGVRAEDGRVRTLPSEYNFWGQGTQVTVSS
notes: also called bivalent 12B6
- binding result [2]: binds

B2: 12A2-GS9-12A2 (VHH)
chain: QVKLEESGGGLVQAGGALRLSCAASGRTFSYNPMGWFRQAPGKERDLVAAISRTGGSTYYPDSVEGRFTISRDNAKRMVYLQMNNLKPEDTAVYYCAAAGVRAEDGRVRTLPSEYTFWGQGTQVTVSSGGGGSGGGSEVQLVESGGGLVQAGGALRLSCAASGRTFSYNPMGWFRQAPGKERDLVAAISRTGGSTYYPDSVEGRFTISRDNAKRMVYLQMNNLKPEDTAVYYCAAAGVRAEDGRVRTLPSEYTFWGQGTQVTVSS
notes: also called bivalent 12A2
- binding result [3]: binds

B4: 12A5H1 (VHH)
VHH: EVQLVESGGGLVQPGGSLRLSCAASGRIFSIGAMGMYRQAPGKGRELVATITSGGSTNYADPVKGRFTISRDGPKNTVYLQMNSLRAEDTAVYYCYANLKQGSYGYRFNDYWGQGTQVTVSS
notes: Humanised 12A5, monovalent; TALON-purified, so His-tagged
- EC50 (read off the curve) [4]: ~0.005 µg/mL

B5: 12A5H2 (VHH)
VHH: B4 VHH with P74A
notes: as for B4
- EC50 (read off the curve) [4]: ~0.03 µg/mL

B6: ADAMTS-13 (protein)
chain: AAGGILHLELLVAVGPDVFQAHQEDTERYVLTNLNIGAELLRDPSLGAQFRVHLVKMVILTEPEGAPNITANLTSSLLSVCGWSQTINPEDDTDPGHADLVLYITRFDLELPDGNRQVRGVTQLGGACSPTWSCLITEDTGFDLGVTIAHEIGHSFGLEHDGAPGSGCGPSGHVMASDGAAPRAGLAWSPCSRRQLLSLLSAGRARCVWDPPRPQPGSAGHPPDAQPGLYYSANEQCRVAFGPKAVACTFAREHLDMCQALSCHTDPLDQSSCSRLLVPLLDGTECGVEKWCSKGRCRSLVELTPIAAVHGRWSSWGPRSPCSRSCGGGVVTRRRQCNNPRPAFGGRACVGADLQAEMCNTQACEKTQLEFMSQQCARTDGQPLRSSPGGASFYHWGAAVPHSQGDALCRHMCRAIGESFIMKRGDSFLDGTRCMPSGPREDGTLSLCVSGSCRTFGCDGRMDSQQVWDRCQVCGGDNSTCSPRKGSFTAGRAREYVTFLTVTPNLTSVYIANHRPLFTHLAVRIGGRYVVAGKMSISPNTTYPSLLEDGRVEYRVALTEDRLPRLEEIRIWGPLQEDADIQVYRRYGEEYGNLTRPDITFTYFQPKPRQAWVWAAVRGPCSVSCGAGLRWVNYSCLDQARKELVETVQCQGSQQPPAWPEACVLEPCPPYWAVGDFGPCSASCGGGLRERPVRCVEAQGSLLKTLPPARCRAGAQQPAVALETCNPQPCPARWEVSEPSSCTSAGGAGLALENETCVPGADGLEAPVTEGPGSVDEKLPAPEPCVGMSCPPGWGHLDATSAGEKAPSPWGSIRTGAQAAHVWTPAAGSCSVSCGRGLMELRFLCMDSALRVPVQEELCGLASKPGSRREVCQAVPCPARWQYKLAACSVSCGRGVVRRILYCARAHGEDDGEEILLDTQCQGLPRPEPQEACSLEPCPPRWKVMSLGPCSASCGLGTARRSVACVQLDQGQDVEVDEAACAALVRPEASVPCLIADCTYRWHVGTWMECSVSCGDGIQRRRDTCLGPQAQAPVPADFCQHLPKPVTVRGCWAGPCVGQGTPSLVPHEEAAAPGRTTATPAGASLEWSQARGLLFSPAPQPRRLLPGPQENSVQSSACGRQHLEPTGTIDMRGPGQADCAVAIGRPLGEVVTLRVLESSLNCSAGDMLLLWGRLTWRKMCRKLLDMTFSSKTNTLVVRQRCGRPGGGVLLRYGSQLAPETFYRECDMQLFGPWGEIVSPSLSPATSNAGGCRLFINVAPHARIAIHALATNMGAGTEGANASYILIRDTHSLRTTAFHGQQVLYWESESSQAEMEFSEGFLKAQASLRGQYWTLQSWVPEMQDPQSWKGKEGT
- proteolytic cleavage of the A1-A2-A3 fragment by normal pool plasma (Western blot) (A1A2A3 construct, P04275): resulting in proteolytic cleavage of the fragment

B7: 14F8 (VHH)
VHH: AVQLVESGGGLVQAGESLRLSCTSSGRAFSYYNTGWFRQAPGKEREFVAAISWSGGLTYYADSVKGRFTISRDNAKDMVYLQMASLKPEDTAVYYCAANRRQKTVQMGERAYDYWGQGTQVTVSS
notes: Monovalent llama Nanobody; TALON-purified and detected with anti-myc, so tagged (myc/His)
- EC50 (read off the curve) [5]: ~0.02 µg/mL

B8: 12B1 (VHH)
VHH: QVQLVESGGGLVQAGGSLRLSCAASGRTFSNYGMGWFRQAPGKEREFVTSISWSGTYTAYSDNVKGRFTISRDNAKNTVYLQMDSLKPEDTAVYYCAAQSRYRSNYYDHDDKYAYWGQGTQVTVSS
notes: as for B7
- EC50 (read off the curve) [5]: ~0.02 µg/mL

B11: 12A2H1 (VHH)
VHH: EVQLVESGGGLVQPGGSLRLSCAASGRTFSYNPMGWFRQAPGKGRELVAAISRTGGSTYYPDSVEGRFTISRDNAKRMVYLQMNSLRAEDTAVYYCAAAGVRAEDGRVRTLPSEYTFWGQGTQVTVSS
notes: Humanised 12A2, monovalent
- binding result [6]: binds

B12: 12B6H1 (VHH)
VHH: B11 VHH with E46D, L47V, P61A, D62R, T116N
notes: Humanised 12B6, monovalent
- EC50 (read off the curve) [7]: ~0.02 µg/mL

B15: 12B6H2 (VHH)
VHH: B11 VHH with L47V, P61A, D62R, T116N
notes: Humanised 12B6, monovalent
- EC50 (read off the curve) [7]: ~0.01 µg/mL

B16: 12B6 (VHH)
VHH: QVQLVESGGGLVQAGGALRLSCAASGRTFSYNPMGWFRQAPGKERDVVAAISRTGGSTYYARSVEGRFTISRDNAKRMVYLQMNALKPEDTAVYYCAAAGVRAEDGRVRTLPSEYNFWGQGTQVTVSS
notes: as for B7
- EC50 (read off the curve) [5]: ~0.02 µg/mL

B17: 12B6-3a-12B6 (VHH)
chain: QVQLVESGGGLVQAGGALRLSCAASGRTFSYNPMGWFRQAPGKERDVVAAISRTGGSTYYARSVEGRFTISRDNAKRMVYLQMNALKPEDTAVYYCAAAGVRAEDGRVRTLPSEYNFWGQGTQVTVSSAAAEVQLVESGGGLVQAGGALRLSCAASGRTFSYNPMGWFRQAPGKERDVVAAISRTGGSTYYARSVEGRFTISRDNAKRMVYLQMNALKPEDTAVYYCAAAGVRAEDGRVRTLPSEYNFWGQGTQVTVSS
notes: also called bivalent 12B6
- binding result [2]: binds

The next lines start with the values.

- binding result [2]: binds
B3: 12B6-GS30-12B6 (VHH)
chain: QVQLVESGGGLVQAGGALRLSCAASGRTFSYNPMGWFRQAPGKERDVVAAISRTGGSTYYARSVEGRFTISRDNAKRMVYLQMNALKPEDTAVYYCAAAGVRAEDGRVRTLPSEYNFWGQGTQVTVSSGGGGSGGGGSGGGGSGGGGSGGGGSGGGGSEVQLVESGGGLVQAGGALRLSCAASGRTFSYNPMGWFRQAPGKERDVVAAISRTGGSTYYARSVEGRFTISRDNAKRMVYLQMNALKPEDTAVYYCAAAGVRAEDGRVRTLPSEYNFWGQGTQVTVSS
notes: also called bivalent 12B6

- binding result [5]: binds
B9: 12E3 (VHH)
VHH: B8 VHH with Q1E, S30N, T56S, S61A, E89G, R103S
notes: as for B7

- binding result [5]: binds
B10: 12C9 (VHH)
VHH: AVQLVESGGGLVQPGGSLKLSCATSGSIFSSSAMAWYRQASGKQRELVATITSGGRTSYADSVKGRFTISRDNAKNTVYLQMNSLKPEDTAVYDCNFVVDGKRAPWGQGTQVTVSS
notes: as for B7

- binding result (pig vWF): binds
B13: 12A2 (VHH)
VHH: B16 VHH with Q3K, V5E, V47L, A61P, R62D, A85N, N116T
notes: 12B6 homologue, monovalent Nanobody

- binding result [8]: binds
B14: 12A2H4 (VHH)
VHH: B11 VHH with M78S
notes: Humanised 12A2, monovalent

- binding result [3]: binds
B18: 12A2-3a-12A2 (VHH)
chain: QVKLEESGGGLVQAGGALRLSCAASGRTFSYNPMGWFRQAPGKERDLVAAISRTGGSTYYPDSVEGRFTISRDNAKRMVYLQMNNLKPEDTAVYYCAAAGVRAEDGRVRTLPSEYTFWGQGTQVTVSSAAAEVQLVESGGGLVQAGGALRLSCAASGRTFSYNPMGWFRQAPGKERDLVAAISRTGGSTYYPDSVEGRFTISRDNAKRMVYLQMNNLKPEDTAVYYCAAAGVRAEDGRVRTLPSEYTFWGQGTQVTVSS
notes: also called bivalent 12A2

- binding result [5]: binds
B19: 12D11 (VHH)
VHH: AVQLVDSGGGLVQAGGSLRLSCTASERTTFSSYTLGWFRQAPGKEREFVGGISWSGVSTDYAEFAKGRFTISRDHAANTVYLEMNSLKPEDTAVYYCAALGRYRSNWRNIGQYDYWGQGTQVTVSS
notes: as for B7
